Assay results: patent US20160251438A1 (LUDWIG INSTITUTE FOR CANCER RESEARCH, published 2016)

Tests used:
Assay in all cases: flow cytometry titration on transfected 293T cells; grade of Reduced avidity read by footnote 3
[1] = biological target: GARP G118L/G119L / TGF-β1 complex (human, UniProt Q14392 20-662; P01137 30-390)
Description: (§1) Intensities of staining at each concentration of antibody relative to the maximal intensity measured at 5 μg/ml were determined as follows:
(§2) The relative staining intensities were plotted according to the concentration of antibody used for staining, and a non-linear regression analysis was used with the Prism software to determine an EC₅₀ value for binding of the antibody to the WT and to each of the various mutant GARP/TGF-β1 complexes. If the ratio between the EC₅₀ measured on the mutant and the EC₅₀ measured on the WT was >2, the mutation was considered to induce a reduced avidity for binding by the antibody. The ratio of EC₅₀ (mutant vs WT) for MHG-8 and LHG-10 are indicated below each mutation on FIG. 19, parts A and B, respectively.

[2] = biological target: GARP G139N / TGF-β1 complex (human, UniProt Q14392 20-662; P01137 30-390)
Description: as §1, §2

[3] = biological target: GARP L140K/E142L / TGF-β1 complex (human, UniProt Q14392 20-662; P01137 30-390)
Description: as §1, §2

[4] = biological target: GARP R163E / TGF-β1 complex (human, UniProt Q14392 20-662; P01137 30-390)
Description: as §1, §2

[5] = biological target: GARP T165A / TGF-β1 complex (human, UniProt Q14392 20-662; P01137 30-390)
Description: as §1, §2

[6] = biological target: GARP R166M/H167E / TGF-β1 complex (human, UniProt Q14392 20-662; P01137 30-390)
Description: as §1, §2

[7] = biological target: GARP / TGF-β1 R58A complex (human, UniProt Q14392 20-662; P01137 30-390)
Description: as §1, §2

[8] = biological target: GARP / TGF-β1 S337A complex (human, UniProt Q14392 20-662; P01137 30-390)
Description: as §1, §2

Sequence of GARP R166M/H167E / TGF-β1 complex (Q14392 20-662 R166M/H167E limits assumed, chain 1 of 2): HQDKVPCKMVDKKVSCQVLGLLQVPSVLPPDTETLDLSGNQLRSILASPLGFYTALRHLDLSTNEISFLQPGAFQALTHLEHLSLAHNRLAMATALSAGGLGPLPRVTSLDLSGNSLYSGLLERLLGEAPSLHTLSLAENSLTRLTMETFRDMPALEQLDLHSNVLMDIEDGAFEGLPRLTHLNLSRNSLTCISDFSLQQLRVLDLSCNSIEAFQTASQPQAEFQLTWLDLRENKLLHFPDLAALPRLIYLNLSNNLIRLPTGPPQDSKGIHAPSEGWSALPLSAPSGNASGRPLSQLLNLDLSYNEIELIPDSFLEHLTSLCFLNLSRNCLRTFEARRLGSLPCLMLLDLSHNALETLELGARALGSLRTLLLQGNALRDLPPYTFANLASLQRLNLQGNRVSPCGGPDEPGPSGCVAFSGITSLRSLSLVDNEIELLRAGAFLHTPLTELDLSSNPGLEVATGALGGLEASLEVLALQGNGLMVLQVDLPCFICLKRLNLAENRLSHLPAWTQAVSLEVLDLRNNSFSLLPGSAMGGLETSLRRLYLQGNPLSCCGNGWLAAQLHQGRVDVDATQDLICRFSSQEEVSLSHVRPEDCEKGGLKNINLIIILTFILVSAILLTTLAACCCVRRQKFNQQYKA
Sequence of GARP R166M/H167E / TGF-β1 complex (P01137 30-390 limits assumed, stated change not applied, chain 2 of 2): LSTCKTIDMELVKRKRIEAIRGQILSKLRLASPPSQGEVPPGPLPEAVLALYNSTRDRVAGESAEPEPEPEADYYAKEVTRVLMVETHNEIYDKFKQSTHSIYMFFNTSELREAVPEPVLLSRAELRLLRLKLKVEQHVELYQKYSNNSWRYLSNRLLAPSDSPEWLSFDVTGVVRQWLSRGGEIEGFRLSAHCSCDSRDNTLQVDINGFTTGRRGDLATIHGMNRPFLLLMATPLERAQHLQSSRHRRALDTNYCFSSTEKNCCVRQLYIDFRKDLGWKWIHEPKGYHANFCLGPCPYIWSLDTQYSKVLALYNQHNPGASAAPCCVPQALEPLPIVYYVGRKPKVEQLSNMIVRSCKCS
Sequence of GARP G118L/G119L / TGF-β1 complex (Q14392 20-662 G118L/G119L limits assumed, chain 1 of 2): as the sequence (Q14392 20-662 R166M/H167E limits assumed, chain 1 of 2) above, with G99L, G100L, M147R, E148H counted along it
Sequence of GARP G118L/G119L / TGF-β1 complex (P01137 30-390 limits assumed, chain 2 of 2): as the sequence (P01137 30-390 limits assumed, stated change not applied, chain 2 of 2) above
Sequence of GARP T165A / TGF-β1 complex (Q14392 20-662 T165A limits assumed, chain 1 of 2): as the sequence (Q14392 20-662 R166M/H167E limits assumed, chain 1 of 2) above, with T146A, M147R, E148H counted along it
Sequence of GARP T165A / TGF-β1 complex (P01137 30-390 limits assumed, chain 2 of 2): as the sequence (P01137 30-390 limits assumed, stated change not applied, chain 2 of 2) above
Sequence of GARP L140K/E142L / TGF-β1 complex (Q14392 20-662 L140K/E142L limits assumed, chain 1 of 2): as the sequence (Q14392 20-662 R166M/H167E limits assumed, chain 1 of 2) above, with L121K, E123L, M147R, E148H counted along it
Sequence of GARP L140K/E142L / TGF-β1 complex (P01137 30-390 limits assumed, stated change not applied, chain 2 of 2): as the sequence (P01137 30-390 limits assumed, stated change not applied, chain 2 of 2) above
Sequence of GARP / TGF-β1 R58A complex (Q14392 20-662 limits assumed, chain 1 of 2): as the sequence (Q14392 20-662 R166M/H167E limits assumed, chain 1 of 2) above, with M147R, E148H counted along it
Sequence of GARP / TGF-β1 R58A complex (P01137 30-390 R58A limits assumed, chain 2 of 2): as the sequence (P01137 30-390 limits assumed, stated change not applied, chain 2 of 2) above, with R29A counted along it
Sequence of GARP / TGF-β1 S337A complex (Q14392 20-662 limits assumed, chain 1 of 2): as the sequence (Q14392 20-662 R166M/H167E limits assumed, chain 1 of 2) above, with M147R, E148H counted along it
Sequence of GARP / TGF-β1 S337A complex (P01137 30-390 S337A limits assumed, chain 2 of 2): as the sequence (P01137 30-390 limits assumed, stated change not applied, chain 2 of 2) above, with S308A counted along it
Sequence of GARP G139N / TGF-β1 complex (Q14392 20-662 G139N limits assumed, chain 1 of 2): as the sequence (Q14392 20-662 R166M/H167E limits assumed, chain 1 of 2) above, with G120N, M147R, E148H counted along it
Sequence of GARP G139N / TGF-β1 complex (P01137 30-390 limits assumed, chain 2 of 2): as the sequence (P01137 30-390 limits assumed, stated change not applied, chain 2 of 2) above
Sequence of GARP R163E / TGF-β1 complex (Q14392 20-662 R163E limits assumed, chain 1 of 2): as the sequence (Q14392 20-662 R166M/H167E limits assumed, chain 1 of 2) above, with R144E, M147R, E148H counted along it
Sequence of GARP R163E / TGF-β1 complex (P01137 30-390 limits assumed, chain 2 of 2): as the sequence (P01137 30-390 limits assumed, stated change not applied, chain 2 of 2) above

B1: LHG-10 (antibody, human IgG1, V domains shown)
VH: EVQLVQPGAELRNSGASVKVSCKASGYRFTSYYIDWVRQAPGQGLEWMGRIDPEDGGTKYAQKFQGRVTFTADTSTSTAYVELSSLRSEDTAVYYCARNEWETVVVGDLMYEYEYWGQGTQVTVSS
VL: DIQMTQSPTSLSASLGDRVTITCQASQSISSYLAWYQQKPGQAPKLLIYGASRLQTGVPSRFSGSGSGTSFTLTISGLEAEDAGTYYCQQYDSLPVTFGQGTKVELK
notes: llama-derived V regions in a full human IgG1
ratio of EC50 (mutant vs WT) [1]: ≤ 2 ratio | ratio of EC50 (mutant vs WT) [2]: ≤ 2 ratio | ratio of EC50 (mutant vs WT) [3]: ≤ 2 ratio | ratio of EC50 (mutant vs WT) [4]: > 2 ratio | ratio of EC50 (mutant vs WT) [5]: ≤ 2 ratio | ratio of EC50 (mutant vs WT) [6]: ≤ 2 ratio | ratio of EC50 (mutant vs WT) [7]: ≤ 2 ratio | ratio of EC50 (mutant vs WT) [8]: ≤ 2 ratio
